Source: US20260242419A1, “A CYCLIC PEPTIDE FOR TRAPPING INTERLEUKIN-1 BETA” (Merck Sharp & Dohme LLC, priority 2023, published 2026)
Starred links: 1 amine or outer side, 2 acyl side, 3 side chain; linkers in the order of their positions; H or OH if unused. Non-standard residues stand in square brackets, D forms with d. Primed or numbered codes have the meaning given here. dProc4Bn4Br = (2R,4R)-4-[(4-bromophenyl)methyl]pyrrolidine-2-carboxylic acid, O=C([C@H]1C[C@@H](Cc2ccc(Br)cc2)CN1[*:1])[*:2]; Trp(4-Cl)(βS-Me) = C[C@@H](c1c[nH]c2cccc(Cl)c12)[C@H](N)C(=O)O; Trp(βS-Me,4-F) = C[C@@H](c1c[nH]c2cccc(F)c12)[C@H](N)C(=O)O; Bip(4'-COOH) = N[C@@H](Cc1ccc(-c2ccc(C(=O)O)cc2)cc1)C(=O)O; Ala(1-bicyclo(1.1.1)pentyl) = N[C@@H](CC12CC(C1)C2)C(=O)O; dPro(4R-Bzl(4-F)) = O=C(O)[C@H]1C[C@@H](Cc2ccc(F)cc2)CN1; 1Nal(3S-Me) = C[C@@H](c1cccc2ccccc12)[C@H](N)C(=O)O; Ala(pyrimidin-5-yl) = N[C@@H](Cc1cncnc1)C(=O)O; Phe(4-COOH) = N[C@@H](Cc1ccc(C(=O)O)cc1)C(=O)O; dαMeDab = C[C@](CCN[*:3])(N[*:1])C(=O)[*:2]; Pro(cis-4-F) = O=C(O)[C@@H]1C[C@H](F)CN1; Ala(4-THP) = N[C@@H](CC1CCOCC1)C(=O)O; aIle = CC[C@@H](C)[C@H](N)C(=O)O; d(αMeK) = C[C@@](N)(CCCCN)C(=O)O; 4Pal = N[C@@H](Cc1ccncc1)C(=O)O; aThr = C[C@H](O)[C@H](N)C(=O)O; αMeD = C[C@](N)(CC(=O)O)C(=O)O; αMeK = C[C@](N)(CCCCN)C(=O)O; dαMeDab′ = not defined here; hSer = N[C@@H](CCO)C(=O)O; Dab = NCC[C@H](N)C(=O)O; Aib = CC(C)(N)C(=O)O; Sar = CNCC(=O)O

What follows are binders tested against Recombinant human IL-1β (BioLegend 579404) (human, UniProt P01584 117-269) (assay: cell-based or functional assay).

Row | MRC5 IC50 | Binder
1 | 0.022 nM | cyclo([Bip(4'-COOH)][4Pal][Phe(4-COOH)]G[Pro(cis-4-F)][Trp(βS-Me,4-F)][Aib]TW[αMeK][Ala(pyrimidin-5-yl)]Q[Dab]G[dPro(4R-Bzl(4-F))]) (ring closure inferred; not fully specified (bridges); printed as Bip4CO2H-4Pal-Phe4COOH-G-Proc4F-SbMeW4F-Aib-T-W-aMeK-PyrimAla-Q-Dab-G-dProc4Bn4F) [SEQ ID NO: 137]
2 | 0.027 nM | cyclo([Bip(4'-COOH)][4Pal][Phe(4-COOH)]G[Pro(cis-4-F)][Trp(βS-Me,4-F)][Aib][aIle]W[αMeK][Ala(pyrimidin-5-yl)]Q[Dab]G[dPro(4R-Bzl(4-F))]) (ring closure inferred; not fully specified (bridges); printed as Bip4CO2H-4Pal-Phe4COOH-G-Proc4F-SbMeW4F-Aib-alI-W-aMeK-PyrimAla-Q-Dab-G-dProc4Bn4F) [SEQ ID NO: 136]
3 | 0.021 nM | cyclo([Bip(4'-COOH)][4Pal][Phe(4-COOH)]G[Pro(cis-4-F)][Trp(βS-Me,4-F)][Aib][hSer]W[αMeK][Ala(pyrimidin-5-yl)]Q[Dab]G[dPro(4R-Bzl(4-F))]) (ring closure inferred; not fully specified (bridges); printed as Bip4CO2H-4Pal-Phe4COOH-G-Proc4F-SbMeW4F-Aib-hS-W-aMeK-PyrimAla-Q-Dab-G-dProc4Bn4F) [SEQ ID NO: 133]
4 | 0.034 nM | cyclo([Bip(4'-COOH)][Ala(1-bicyclo(1.1.1)pentyl)][Phe(4-COOH)]G[Pro(cis-4-F)][Trp(βS-Me,4-F)][Aib]SW[αMeK][Ala(4-THP)]Q[Dab]G[dPro(4R-Bzl(4-F))]) (ring closure inferred; not fully specified (bridges); printed as Bip4CO2H-AlaPent-Phe4COOH-G-Proc4F-SbMeW4F-Aib-S-W-aMeK-AlaTHP4-Q-Dab-G-dProc4Bn4F, cyclic (macrolactam)) [SEQ ID NO: 146]
5 | 0.015 nM | cyclo([Bip(4'-COOH)][4Pal][Phe(4-COOH)]G[Pro(cis-4-F)][Trp(βS-Me,4-F)][Aib]EW[αMeK][Ala(pyrimidin-5-yl)]Q[Dab][Sar][dPro(4R-Bzl(4-F))]) (ring closure inferred; not fully specified (bridges); printed as Bip4CO2H-4Pal-Phe4COOH-G-Proc4F-SbMeW4F-Aib-E-W-aMeK-PyrimAla-Q-Dab-Sar-dProc4Bn4F) [SEQ ID NO: 132]
6 | 0.021 nM | cyclo([Bip(4'-COOH)][4Pal][Phe(4-COOH)]G[Pro(cis-4-F)][Trp(βS-Me,4-F)][Aib]AW[αMeK][Ala(pyrimidin-5-yl)]Q[Dab]G[dPro(4R-Bzl(4-F))]) (ring closure inferred; not fully specified (bridges); printed as Bip4CO2H-4Pal-Phe4COOH-G-Proc4F-SbMeW4F-Aib-A-W-aMeK-PyrimAla-Q-Dab-G-dProc4Bn4F) [SEQ ID NO: 134]

Further lines, the binder ahead of its results:

Row | Binder | MRC5 IC50
7 | cyclo([Bip(4'-COOH)][Ala(1-bicyclo(1.1.1)pentyl)][Phe(4-COOH)]G[Pro(cis-4-F)][Trp(βS-Me,4-F)][Aib]SW[d(αMeK)][Ala(pyrimidin-5-yl)]Q[Dab]G[dPro(4R-Bzl(4-F))]) (ring closure inferred; not fully specified (bridges); printed as Bip4CO2H-AlaPent-Phe4COOH-G-Proc4F-SbMeW4F-Aib-S-W-daMeK-PyrimAla-Q-Dab-G-dProc4Bn4F, cyclic (macrolactam)) [SEQ ID NO: 145] | 0.041 nM
8 | cyclo([Bip(4'-COOH)][4Pal][Phe(4-COOH)]G[Pro(cis-4-F)][Trp(βS-Me,4-F)][Aib]EW[Aib][Ala(pyrimidin-5-yl)]Q[Dab]G[dProc4Bn4Br]) (ring closure inferred; not fully specified (bridges); printed as Bip4CO2H-4Pal-Phe4COOH-G-Proc4F-sbMeW4F-Aib-E-W-Aib-PyrimAla-Q-Dab-G-dProc4Bn4Br, cyclic (macrolactam)) [SEQ ID NO: 143] | 0.026 nM
9 | cyclo([Bip(4'-COOH)][4Pal][Phe(4-COOH)]G[Pro(cis-4-F)][Trp(βS-Me,4-F)][Aib]VW[αMeK][Ala(pyrimidin-5-yl)]Q[Dab]G[dPro(4R-Bzl(4-F))]) (ring closure inferred; not fully specified (bridges); printed as Bip4CO2H-4Pal-Phe4COOH-G-Proc4F-SbMeW4F-Aib-V-W-aMeK-PyrimAla-Q-Dab-G-dProc4Bn4F) [SEQ ID NO: 135] | 0.035 nM
10 | cyclo([Bip(4'-COOH)][4Pal][Phe(4-COOH)]G[Pro(cis-4-F)][Trp(βS-Me,4-F)][Aib][aThr]W[αMeK][Ala(pyrimidin-5-yl)]Q[Dab]G[dPro(4R-Bzl(4-F))]) (ring closure inferred; not fully specified (bridges); printed as Bip4CO2H-4Pal-Phe4COOH-G-Proc4F-SbMeW4F-Aib-alT-W-aMeK-PyrimAla-Q-Dab-G-dProc4Bn4F) [SEQ ID NO: 138] | 0.021 nM
11 | cyclo([Bip(4'-COOH)][4Pal][Phe(4-COOH)]G[Pro(cis-4-F)][Trp(βS-Me,4-F)][dαMeDab′]SW[Aib][Ala(pyrimidin-5-yl)]Q[Dab]G[dPro(4R-Bzl(4-F))]) (ring closure inferred; not fully specified (bridges); printed as Bip4CO2H-4Pal-Phe4COOH-G-Proc4F-SbMeW4F-daMeDab-S-W-Aib-PyrimAla-Q-Dab-G-dProc4Bn4F) [SEQ ID NO: 131] | 0.019 nM
12 | cyclo([Bip(4'-COOH)][4Pal][Phe(4-COOH)]G[Pro(cis-4-F)][Trp(βS-Me,4-F)][Aib]SW[αMeDab][Ala(pyrimidin-5-yl)]Q[Dab]G[dPro(4R-Bzl(4-F))]) (ring closure inferred; not fully specified (bridges); printed as Bip4CO2H-4Pal-Phe4COOH-G-Proc4F-SbMeW4F-Aib-S-W-aMeDab-PyrimAla-Q-Dab-G-dProc4Bn4F) [SEQ ID NO: 130] | 0.039 nM
13 | cyclo([Bip(4'-COOH)][Ala(1-bicyclo(1.1.1)pentyl)][Phe(4-COOH)]G[Pro(cis-4-F)][Trp(βS-Me,4-F)][Aib]SW[αMeK][Ala(pyrimidin-5-yl)]Q[Dab]G[dPro(4R-Bzl(4-F))]) (ring closure inferred; not fully specified (bridges); printed as Bip4CO2H-AlaPent-Phe4COOH-G-Proc4F-SbMeW4F-Aib-S-W-aMeK-PyrimAla-Q-Dab-G-dProc4Bn4F, cyclic (macrolactam)) [SEQ ID NO: 144] | 0.031 nM
14 | cyclo([Bip(4'-COOH)][4Pal][Phe(4-COOH)]G[Pro(cis-4-F)][1Nal(3S-Me)][Aib]SW[Aib][Ala(pyrimidin-5-yl)]Q[Dab]G[dPro(4R-Bzl(4-F))]) (ring closure inferred; not fully specified (bridges); printed as Bip4CO2H-4Pal-Phe4COOH-G-Proc4F-SbMe1Nal-Aib-S-W-Aib-PyrimAla-Q-Dab-G-dProc4Bn4F) [SEQ ID NO: 140] | 0.033 nM
15 | cyclo([Bip(4'-COOH)][4Pal][Phe(4-COOH)]G[Pro(cis-4-F)][Trp(βS-Me,4-F)][Aib]SW[αMeD][Ala(pyrimidin-5-yl)]Q[Dab]G[dPro(4R-Bzl(4-F))]) (ring closure inferred; not fully specified (bridges); printed as Bip4CO2H-4Pal-Phe4COOH-G-Proc4F-SbMeW4F-Aib-S-W-aMeD-PyrimAla-Q-Dab-G-dProc4Bn4F) [SEQ ID NO: 141] | 0.011 nM
16 | cyclo([Bip(4'-COOH)][4Pal][Phe(4-COOH)]G[Pro(cis-4-F)][Trp(βS-Me,4-F)][Aib]SW[dαMeDab][Ala(pyrimidin-5-yl)]Q[Dab]G[dPro(4R-Bzl(4-F))]) (ring closure inferred; not fully specified (bridges); printed as Bip4CO2H-4Pal-Phe4COOH-G-Proc4F-SbMeW4F-Aib-S-W-daMeDab-PyrimAla-Q-Dab-G-dProc4Bn4F) [SEQ ID NO: 142] | 0.019 nM
17 | cyclo([Bip(4'-COOH)][4Pal][Phe(4-COOH)]G[Pro(cis-4-F)][Trp(βS-Me,4-F)][αMeDab]SW[Aib][Ala(pyrimidin-5-yl)]Q[Dab]G[dPro(4R-Bzl(4-F))]) (ring closure inferred; not fully specified (bridges); printed as Bip4CO2H-4Pal-Phe4COOH-G-Proc4F-SbMeW4F-aMeDab-S-W-Aib-PyrimAla-Q-Dab-G-dProc4Bn4F) [SEQ ID NO: 129] | 0.019 nM
18 | cyclo([Bip(4'-COOH)][4Pal][Phe(4-COOH)]G[Pro(cis-4-F)][Trp(4-Cl)(βS-Me)][Aib]SW[Aib][Ala(pyrimidin-5-yl)]Q[Dab]G[dPro(4R-Bzl(4-F))]) (ring closure inferred; not fully specified (bridges); printed as Bip4CO2H-4Pal-Phe4COOH-G-Proc4F-SbMeW4Cl-Aib-S-W-Aib-PyrimAla-Q-Dab-G-dProc4Bn4F) [SEQ ID NO: 139] | 0.034 nM
